From US20160376333A1 (University of Washington, published 2016) come the findings set out here.

The target of assay [1] is T1, human Bcl-w a.a. 1-182 with C-terminal avi-6his tag (human, UniProt Q92843 1-182).
T1 construct: range 1-182; also called BCL2L2
T1 sequence: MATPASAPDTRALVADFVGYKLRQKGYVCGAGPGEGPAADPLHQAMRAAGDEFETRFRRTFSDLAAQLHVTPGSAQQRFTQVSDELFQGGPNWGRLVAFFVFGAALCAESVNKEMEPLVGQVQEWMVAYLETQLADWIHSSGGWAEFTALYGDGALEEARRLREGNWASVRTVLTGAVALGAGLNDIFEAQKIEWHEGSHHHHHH
The assay can be described thus: ratio of the KD of the next tightest BCL2 protein to the KD of the target, BLI.

Assay [2] concerns the target T2, human Bcl-2 a.a. 1-207 with C-terminal avi-6his tag (human, UniProt P10415 2-207). Description: BLI, biotinylated target on streptavidin sensor, range of analyte concentrations.
The target of assay [3] is T1, human Bcl-w a.a. 1-182 with C-terminal …. The description is as above.
The target of assay [4] is T3, human Mcl-1 a.a. 172-327 with C-terminal avi-6his tag (human).
T3 chain: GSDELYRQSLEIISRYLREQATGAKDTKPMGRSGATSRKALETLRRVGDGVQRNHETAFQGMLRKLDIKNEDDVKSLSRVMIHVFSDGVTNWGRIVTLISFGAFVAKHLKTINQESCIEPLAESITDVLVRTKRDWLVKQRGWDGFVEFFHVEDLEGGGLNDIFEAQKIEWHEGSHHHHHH
Described as above.

Assay [5] has as its target T4, human Bfl-1 a.a. 1-153 (C4S) with C-terminal avi-6his tag (human).
T4 construct: also called A1/Bfl-1
T4 chain: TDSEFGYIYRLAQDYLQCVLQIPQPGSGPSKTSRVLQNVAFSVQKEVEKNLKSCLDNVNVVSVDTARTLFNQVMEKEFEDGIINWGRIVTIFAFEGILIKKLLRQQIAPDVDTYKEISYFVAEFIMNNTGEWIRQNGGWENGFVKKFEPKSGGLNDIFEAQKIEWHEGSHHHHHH
The assay is described as above.

Assay [6] concerns the target T5, human Bcl-XL a.a. 1-205 with C-terminal avi-6his tag (human, UniProt Q07817 2-206).
T5 construct: also called BCL2L1
The description is as above.

For assay [7], the target named is T6, human Bcl-B a.a. 11-175 with C-terminal avi-6his tag (human).
T6 construct: also called BCL2L10
T6 chain: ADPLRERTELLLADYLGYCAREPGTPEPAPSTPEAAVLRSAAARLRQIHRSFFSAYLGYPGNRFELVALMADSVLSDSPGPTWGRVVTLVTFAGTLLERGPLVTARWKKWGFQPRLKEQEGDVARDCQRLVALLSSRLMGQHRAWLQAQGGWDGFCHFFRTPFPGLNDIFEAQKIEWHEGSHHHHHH
Described as above.

Assay [8] addresses T2, human Bcl-2 a.a. 1-207 with C-terminal …. The assay can be described thus: BLI at a single analyte concentration (50 nM, 600 s association, then buffer); biotinylated BCL2 protein on a streptavidin sensor.
Assay [9] deals with T1, human Bcl-w a.a. 1-182 with C-terminal …. Described as above.
Assay [10] has as its target T3, human Mcl-1 a.a. 172-327 with …. The description is as above.
The target of assay [11] is T4, human Bfl-1 a.a. 1-153 (C4S) with …. Described as above.
The target of assay [12] is T5, human Bcl-XL a.a. 1-205 with C-terminal …. The assay is described as above.
The target in assay [13] is T6, human Bcl-B a.a. 11-175 with C-terminal …. The assay is described as above.
In assay [14] the target is T5, human Bcl-XL a.a. 1-205 with C-terminal …. Description: ratio of the KD of the next tightest BCL2 protein to the KD of the target, BLI.
Assay [15] addresses T2, human Bcl-2 a.a. 1-207 with C-terminal …. The assay is described as above.
The target is the same in assay [16]. Description: yeast surface display titration; apparent binding constant (mean ± SE, n = 3-6).
Assay [17] concerns the target T1, human Bcl-w a.a. 1-182 with C-terminal …. Described as above.
The target in assay [18] is T3, human Mcl-1 a.a. 172-327 with …. The description is as above.
The target of assay [19] is T4, human Bfl-1 a.a. 1-153 (C4S) with …. The description is as above.
For assay [20], the target named is T5, human Bcl-XL a.a. 1-205 with C-terminal …. Described as above.
Assay [21] has as its target T7, Epstein-Barr virus BHRF1 a.a. 1-161 with C-terminal avi-6his tag (Epstein-Barr virus).
T7 construct: also called EBV BHRF1; BHRF1-biotin
T7 chain: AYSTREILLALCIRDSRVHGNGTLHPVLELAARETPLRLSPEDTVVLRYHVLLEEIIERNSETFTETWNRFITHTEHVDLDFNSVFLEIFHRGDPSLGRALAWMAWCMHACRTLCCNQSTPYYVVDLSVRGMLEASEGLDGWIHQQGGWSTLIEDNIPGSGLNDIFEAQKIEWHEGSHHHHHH
Description: effect of the mutation on specificity (KD(BHRF1)/KD(Mcl-1) ratio): change in binding energy for BHRF1 minus that for Mcl-1, relative to BbpD04; assay not named on the sheet.

B1: W-CDP03 (designed binder)
chain: DPKKVFDEAKDRAENNVRRLKQKLEELYKEARKKDLTQEEREKLKEKYKTAMAAAALAAIGDAFNALLKARKLHKNGQVNEQQLEELARRLQELAKEAFQKAKDYANEFEYKLEY
Consider B1, for which, in [1], the Specificity came out at 0.9 fold. Besides, the Kd came out at 18.8 nM in [2]; 55.3 nM in [4]; 400 nM in assay [5]; 7.43 nM in [6]; 400 nM in assay [7]. For the same molecule, in assay [3], the “apparent Kd (pooled screen)” value was 8 nM.

B2: WINDI (designed binder)
chain: DPKKVFDELKDRAENNVRRLKQKLEELYKEARKKDLTQEEREKLKTKYKTAMQLAALAAEGDIMNALLKARKLHKNGQVNEQQLEELARRLMELAKEAFQKAKDYANEFKYKLEY
notes: also called W-ECM01; αBCLW
Regarding B2, in [1], the Specificity was determined as 1590 fold. Besides, the Kd in [2] came to 5700 nM; in assay [3], 1.01 nM; in assay [6] it was 1610 nM.

B3: M-CDP03 (designed binder)
chain: ADPKKVLDKAKDQAENRVRELKQDLERLYKEARKLDLTQEMRRKLQEKAAAAMIRAIGDINNAIYQALQEADKLKKAGLVNSQQLDELKRRLEELQKEASRKAQAYGEEFMLKLEY
Take B3: the binding result in [8] was “no binding (tested: 50 nM)”; in [9], “no binding (tested: 50 nM)”; in assay [10], “binds”; in assay [11] it was “no binding (tested: 50 nM)”; in assay [12] it was “no binding (tested: 50 nM)”; in [13], “no binding (tested: 50 nM)”.

B4: XINDI (designed binder)
chain: ADPKKVLDKAKDRAENVVRKLKKELEELYKEARKLDLTQEMRDRIRRTAIAARFQAHGDIFHAIKHAKEEARKLKKAGLVNSQQLDELKRRLRELDEEAEQRAEKLGKEFRLKLEY
notes: also called X-ECM04; αBCLXL
Regarding B4, the Specificity in [14] is 660 fold. Moreover, the Kd in [2] worked out at 3700 nM; in [3], 40000 nM; in [6], 5.59 nM.

B5: X-CDP07 (designed binder)
chain: ADPKKVLDKAKDRAENVVRKLKKELEELYKEARKLDLTQEMRDRIRLAAIAARIAAFGDIFHAIMEALEEARKLKKAGLVNSQQLDELKRRLEELDEEAAQRAEKLGKEFELKLEY
For B5, in [14], the Specificity came to 6.46 fold. Moreover, the Kd in [2] amounted to 3.81 nM; in [3], 14.9 nM; in assay [4], 174 nM; in assay [7], 107 nM. Further, in assay [6], the “apparent Kd (pooled screen)” value worked out at 0.59 nM.

B6: 2-INDI (designed binder)
chain: ADPKKVLDKAKDEAENRVRELKQRLEELYKEARKLDLTQEMRQELVDKARAASLQANGDIFYAILRALAEAEKLKKAGLVNSQQLDELKRRLEELAEEARRKAEKLRDEFRLKLEY
notes: also called αBCL2
B6: the Specificity in [15] was 2210 fold. Besides, the Kd in assay [2] was 0.839 nM; in assay [3] it was 1850 nM; in assay [6], 3500 nM.

B7: 2-CDP06 (designed binder)
chain: ADPKKVLDKAKDEAENRVRELKQKLEELYKEARKLDLTQEMRQELVDKARAASLQASGDIFYAILRALAEAEKLKKAGLVNSQQLDELKRRLEELAEEARRKAEKLGDEFRLKLEY
For B7, the Specificity in assay [15] turned out to be 190 fold. For the same molecule, the “apparent Kd (pooled screen)” value in assay [2] turned out to be 8.9 nM. The values for the Kd in [3] and in [6] were 1670 nM and 12000 nM, respectively.

B8: BbpD04.2 C103V (designed binder)
designed protein: ADWKKVLDKAKDIAENRVRELKQKLEEFYKEAMKLDLTQEMRRKLMLRWIAAMLMAIGDIFNAIRQAKQEADKLKKAGLVNSQQLDELKRRLEELKEEASRKVRDYGREFQLKLEY
Take B8: the Kd in [16] was 12.6 nM; in [17] it was 9.6 nM; in assay [18], 2.3 nM; in [19] it was 19 nM; in assay [20], 20 nM.

B9: E48R (designed binder)
designed protein: ADWKKVLDKAKDIAENRVREIKQKLEEFYKKAMKLDLTQEMRRKLMLRWIAAMLMAIGDIFNAIEQAKQEADKLKKAGQVNSQLLDELKRRLEELKEEASRKCHDYGREFQLKLEY
As to B9, the “[..] ΔΔG BHRF1 - ΔΔG Mcl-1” value in [21] is -0.762 kcal/mol.
